From PMC10415144, “Structural insights into CodY activation and DNA recognition”
Substitutions are numbered along the chain they refer to.

Columns and labels:
SaCodY [1] = target: T1, SaCodY (Staphylococcus aureus, UniProt Q2FHI3 1-257); assay: BLI; 1 uM SaCodY; Ile + GTP (implied); BLI: 20 mM Tris-HCl pH 8, 150 mM NaCl, 2 mM MgCl2, 0.1% NP-40, 25 C; 2 mM GTP and/or 10 mM Ile/Leu/Val as stated; conditions: protein: recombinant; tags: His6 removed by TEV; N-terminal Gly-Ala remnant; chain copies: 4; label: 5'-biotin on one strand; 3-nt overhang at biotinylated 5' end
T1 sequence: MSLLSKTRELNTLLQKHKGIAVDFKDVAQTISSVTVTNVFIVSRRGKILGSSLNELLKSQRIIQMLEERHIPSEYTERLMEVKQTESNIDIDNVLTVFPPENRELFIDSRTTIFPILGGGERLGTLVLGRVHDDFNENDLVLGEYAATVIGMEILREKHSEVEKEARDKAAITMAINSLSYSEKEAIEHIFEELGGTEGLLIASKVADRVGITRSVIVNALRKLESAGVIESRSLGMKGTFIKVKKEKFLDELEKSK

SaCodY [2] = target: T1, SaCodY; assay: BLI; Ile + GTP (implied); BLI: 20 mM Tris-HCl pH 8, 150 mM NaCl, 2 mM MgCl2, 0.1% NP-40, 25 C; 2 mM GTP and/or 10 mM Ile/Leu/Val as stated; conditions: protein: recombinant; tags: His6 removed by TEV; N-terminal Gly-Ala remnant; chain copies: 4; label: 5'-biotin on one strand; 3-nt overhang at biotinylated 5' end
EfCodY [3] = target: T2, EfCodY (Enterococcus faecalis, UniProt Q834K5 1-260); assay: X-ray crystallography; Leu (bound in dimer 1 only); two dimers per duplex; BLI: 20 mM Tris-HCl pH 8, 150 mM NaCl, 2 mM MgCl2, 0.1% NP-40, 25 C; 2 mM GTP and/or 10 mM Ile/Leu/Val as stated; conditions: protein: recombinant; tags: His6 removed by TEV; N-terminal Gly-Ala remnant; chain copies: 4; blunt
T2 sequence: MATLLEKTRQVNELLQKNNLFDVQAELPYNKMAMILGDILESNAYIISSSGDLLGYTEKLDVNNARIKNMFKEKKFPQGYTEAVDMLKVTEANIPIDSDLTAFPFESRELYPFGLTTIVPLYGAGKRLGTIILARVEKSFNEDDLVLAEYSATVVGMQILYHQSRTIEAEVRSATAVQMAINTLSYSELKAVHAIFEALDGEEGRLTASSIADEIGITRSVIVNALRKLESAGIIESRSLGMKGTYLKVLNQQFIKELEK

SaCodY [4] = target: T1, SaCodY; assay: X-ray crystallography; Ile + GTP; two dimers per duplex; BLI: 20 mM Tris-HCl pH 8, 150 mM NaCl, 2 mM MgCl2, 0.1% NP-40, 25 C; 2 mM GTP and/or 10 mM Ile/Leu/Val as stated; conditions: protein: recombinant; tags: His6 removed by TEV; N-terminal Gly-Ala remnant; chain copies: 4; blunt
EfCodY [5] = target: T2, EfCodY; assay: BLI; 1 uM protein; 10 mM Leu; BLI: 20 mM Tris-HCl pH 8, 150 mM NaCl, 2 mM MgCl2, 0.1% NP-40, 25 C; 2 mM GTP and/or 10 mM Ile/Leu/Val as stated; conditions: protein: recombinant; tags: His6 removed by TEV; N-terminal Gly-Ala remnant; chain copies: 4; label: 5'-biotin on one strand; 3-nt overhang at biotinylated 5' end
SaCodY [6] = target: T1, SaCodY; assay: BLI; 1 uM protein; 10 mM Ile + 2 mM GTP; BLI: 20 mM Tris-HCl pH 8, 150 mM NaCl, 2 mM MgCl2, 0.1% NP-40, 25 C; 2 mM GTP and/or 10 mM Ile/Leu/Val as stated; conditions: protein: recombinant; tags: His6 removed by TEV; N-terminal Gly-Ala remnant; chain copies: 4; label: 5'-biotin on one strand; 3-nt overhang at biotinylated 5' end
EfCodY quadruple mutant = EfCodY quadruple mutant (Enterococcus faecalis, UniProt Q834K5 1-260, Y186A;R238A;L240A;Y246A); assay: BLI; 8 uM protein, 10 mM Leu; BLI: 20 mM Tris-HCl pH 8, 150 mM NaCl, 2 mM MgCl2, 0.1% NP-40, 25 C; 2 mM GTP and/or 10 mM Ile/Leu/Val as stated; conditions: protein: recombinant; tags: His6 removed by TEV; N-terminal Gly-Ala remnant; chain copies: 2; label: 5'-biotin on one strand; 3-nt overhang at biotinylated 5' end
EfCodY [7] = target: T2, EfCodY; assay: BLI; 10 mM Leu; BLI: 20 mM Tris-HCl pH 8, 150 mM NaCl, 2 mM MgCl2, 0.1% NP-40, 25 C; 2 mM GTP and/or 10 mM Ile/Leu/Val as stated; conditions: protein: recombinant; tags: His6 removed by TEV; N-terminal Gly-Ala remnant; chain copies: 4; label: 5'-biotin on one strand; 3-nt overhang at biotinylated 5' end

B1: hutP2 single site (dsDNA)
DNA 1: AGTTCAGAATTTTTAGGAATTGAGTG
DNA 2: CACTCAATTCCTAAAAATTCTGAACT
binding result (SaCodY [1]): no binding

B2: hutP1 single site (dsDNA)
DNA 1: AGTTAATAGTTATCAGAATTTTTAGG
DNA 2: CCTAAAAATTCTGATAACTATTAACT
Kd (SaCodY [2]): 1230 nM

B3: 30-bp crystallization DNA (dsDNA)
DNA 1: GATAATTTTCAGAATTTTCAGAAAATTTAG
DNA 2: CTAAATTTTCTGAAAATTCTGAAAATTATC
binding result (EfCodY [3]): binds
binding result (SaCodY [4]): binds

B4: consensus T>G (dsDNA)
DNA 1: CCGCCGGATAATTTGCAGCATTTGCAGCAAATTTAGCCG
DNA 2: CGGCTAAATTTGCTGCAAATGCTGCAAATTATCCGGCGG
binding result (EfCodY [5]): no binding
binding result (SaCodY [6]): no binding

B5: 24-nt sequence-optimized overlapping sites (consensus) (dsDNA)
DNA 1: B4 DNA 1 with G15T, C19A, G24T, C28A
DNA 2: B4 DNA 2 with G12T, C16A, G21T, C25A
binding result (EfCodY quadruple mutant): no binding

B6: hutP operator overlapping sites (dsDNA)
DNA 1: AGTTAATAGTTATCAGAATTTTTAGGAATTGAGTG
DNA 2: CACTCAATTCCTAAAAATTCTGATAACTATTAACT
Kd (SaCodY [2]): 598 nM
binding result (EfCodY [7]): binds
